The target in this assay is T1, CaPol32 (wild type, GST tag cleaved) (C. albicans, UniProt A0A1D8PDM8 1-403).
T1 construct: Pol32, smallest subunit of DNA polymerase delta, C. albicans SC5314; ORF amplified from genomic DNA with primers NAP39 (start codon) and NAP40 (stop codon); length 403 aa, 46.0 kDa; source: S. cerevisiae protease deficient strain, purified (glutathione-Sepharose 4B, GST cleaved with PreScission protease); not shown: GST, N-terminal, cleaved
T1 sequence (looked up): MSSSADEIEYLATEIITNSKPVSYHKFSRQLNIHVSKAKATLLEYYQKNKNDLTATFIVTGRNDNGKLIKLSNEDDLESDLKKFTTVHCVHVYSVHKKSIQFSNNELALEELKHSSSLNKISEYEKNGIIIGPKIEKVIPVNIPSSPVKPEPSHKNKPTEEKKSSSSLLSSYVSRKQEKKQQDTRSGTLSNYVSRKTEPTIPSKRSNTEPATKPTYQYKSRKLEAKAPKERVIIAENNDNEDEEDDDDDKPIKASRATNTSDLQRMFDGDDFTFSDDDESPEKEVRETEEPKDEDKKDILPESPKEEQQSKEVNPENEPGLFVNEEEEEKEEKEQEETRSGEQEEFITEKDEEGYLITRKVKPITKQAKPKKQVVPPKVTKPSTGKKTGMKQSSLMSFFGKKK
The assay can be described thus: ITC; MicroCal PEAQ-ITC, 25°C, 20 mM HEPES pH 7.4, 150 mM NaCl; 20 μM CaPol32 or CaPol32 (F398A, F399A) in the cell, 250 μM CaPCNA in the syringe, 25 injections of 1.5 μl; one-site binding model. As to conditions: both partners purified. Background: In ITC the heat of successive injections is recorded.

B1: CaPCNA (natural protein, C. albicans, UniProt Q5AMN0 1-259, looked up)
chain: MLEGKFEEAALLKKVVEAIKDCVKKCNFNCSEHGITVQAVDDSRVLLVSLLIGQTSFSEYRCDRDVTLGIDLESFSKIIKSANNEDFLTLLAEDSPDQIMAILEEKQKEKISEYSLKLMDIDSEFLQIDDMEYDAVVNMPSSDFAKLVRDLKNLSESLRVVVTKDSVKFTSEGDSGSGSVILKPYTNLKNERESVTISLDDPVDLTFGLKYLNDIVKAATLSDVITIKLADKTPALFEFKMQSGGYLRFYLAPKFDDDE
notes: PCNA (proliferating cell nuclear antigen, DNA sliding clamp), C. albicans; it calls PCNA trimeric without measuring this here; also called proliferating cell nuclear antigen of C. albicans; source: E. coli BL21 DE3, purified (glutathione-Sepharose 4B, GST cleaved with PreScission protease)
As a reminder, the Kd is the concentration at which binding is half-saturated. High values mean a looser complex, low ones a tighter complex. As a reminder, the stoichiometry N is the number of molecules, sites or subunits per partner or assembly. B1: the Kd was roughly 6.75 µM, the dH is roughly -27 kcal/mol and the “stoichiometry N” value worked out at 1 CaPol32 per PCNA trimer.

For the origin of these results see paper PMC9828637, “Pol32, an accessory subunit of DNA polymerase delta, plays an essential role in genome stability and pathogenesis of Candida albicans” (Gut Microbes, 2023).
